Data taken from patent publication US20130116185A1, “PHOSPHATIDYLINOSITOL 3-KINASES ACTIVITY REGULATOR INCLUDING THE FIFTH ZINC FINGER DOMAIN OF FOG2” (SNU R&DB FOUNDATION, priority 2010, published 2013).
Entries after “also recorded” stand apart in the source; their conditions may differ.

Columns and labels:
p85α = target: T1, p85α (Homo sapiens, UniProt P27986); test: Interaction of FOG2 zinc finger domain with p85α (α-Flag immunoprecipitation, Western blot); assay type: binding; conditions: Hep3B cells, 2 days after transfection, FIG. 1B
T1 construct: subject to the Western blot analysis using p85α (sc-1637, Santa Cruz); endogenous in cells; host or cells: Hep3B
From the text: To reveal the region of FOG2 interacting with p85α as a subunit of PI3K, we numbered eight (8) zinc finger domains of FOG2. Then, mutated FOG2 with altered zinc finger domain (FOG-ZF-5-m and FOG-ZF-6-m) was manufactured by mutating two domains (known to interact with p85α) positioned at 413-789th amino acid residues of FOG2.
Hep3B cells were transfected with pCK-flag (control), FOG2-wt (wild type) and FOG2 mutants having modified the zinc finger domain (FOG2-ZF-5-m and FOG2-ZF-6-m). On 2 days after transfection, the lysates were obtained using the lysis buffer (20 mM Hepes (pH7.4), 100 mM NaCl, 20 mM KAc, 10 mM MgCl2, […], 1 mM Na3VO4, 5 mM NaF, 1% NPO4). The cell lysates were immunoprecipitated with the α-Flag (Sigma, A2220) and subject to the Western blot analysis using p85α (sc-1637, Santa Cruz) and α-Flag antibody (Sigma, F1804).

MDA MB 231 cells [1] = test: Cell migration, modified Boyden chamber method; assay type: cell-based; conditions: transfected 24 hr, 18 hr migration, FIG. 3A
Experimental: MDA MB 231 cells were transfected with pCK-flag (control), FOG2-wt (wild type) and FOG2 mutants having modified zinc finger domain (FOG2-ZF-5-m and FOG2-ZF-6-m). The cell migration was then analyzed using the modified Boyden chamber method (Albini A et al., Cancer Res 1987 47:3239-45). Following the transfection for 24 hr, MDA MB 231 cells (1×10^5) were suspended in a serum-free medium and seeded in triplicate in the upper part of BD chamber ([…] pore size). The lower part was filled with the serum-free medium. Following the incubation at 37° C. for 18 hr, non-migrating cells positioned at the upper surface of filters were cleaned with a cotton swab. The migrating cells passing through the lower surface of filters were fixed with 70% ethanol and treated with the Giemsa staining solution for 50 min. Then, the cells were rinsed with water and observed under a microscope. The cell migration rate was determined by counting the number of cells present in randomly-selected six sections and the migration range was expressed as the average number of cells per a microscopic field.
MDA MB 231 cells were incubated with 4 μM Mock (control, DMSO), 4 μM ZF-5-wt-24, 4 μM ZF-5-m-24, 4 μM ZF-5-wt-20 or 4 μM ZF-3-wt-21. After treatment, the cell migration was analyzed using the modified Boyden chamber method (Albini A et al., Cancer Res 1987 47:3239-45). After 2 days of treatment, MDA MB 231 cells (1×10^5) were suspended in the serum free medium and seeded in triplicate in the upper part of BD chamber ([…] pore size). The lower part was filled with the serum free medium. Following the incubation at 37° C. for 18 hr, non-migrating cells positioned at the upper surface of filters were cleaned with the cotton swab. The migrating cells passing through the lower side surface of filters were fixed with 70% ethanol and stained using the Giemsa stain method. The cell migration rate was determined by counting the number of cells present in randomly-selected six sections and the migration range was expressed as the average number of cells per a microscopic field.

MDA MB 231 cells [2] = test: Cell proliferation MTT assay; assay type: cell-based; conditions: transfected with 100 ng DNA, 3 days post-transfection, FIG. 6A
Experimental: Because the PI3K activation is critical in cell growth, the cell proliferation was analyzed to investigate the inhibitory effect of the FOG2 zinc finger domain using the MTT assay.
MDA MB 231 cells were seeded in a 96-well plate, and transfected with 100 ng DNA of pCKflag, FOG2-wt, FOG2-ZF-5-m or FOG2-ZF-6-m using Lipofectamine 2000. On 3 days post-transfection, the MTT assay was performed.
MDA MB 231 cells (2×10^3 cells) were seeded in a 96-well plate and treated with 4 μM each peptide for 3 days. After the treatment, 50 μl of MTT solution (2 mg/ml) was added to each well, incubated at 37° C. for 1 hr. Then, 150 μl of DMSO was added to each well and the absorbance value of each well was measured at 590 nm using a microplate reader.

PI3K = PI3K (Homo sapiens, UniProt P27986); test: PI3K activity in Hep3B cells transfected with FOG2 constructs (p85α immunoprecipitation, 32P-ATP/PIP2 kinase assay); assay type: cell-based; parameters: The cell lysates were immunoprecipitated with p85α (sc-1637, Santa Cruz) and Protein G-Sepharose beads; endogenous in cells; host or cells: Hep3B
Experimental: To investigate the inhibitory effect to PI3K activity by FOG2 zinc finger domain, PI3K activity was analyzed using FOG2 mutants having modified zinc finger domain. Specially, it is known that IGF signaling pathway plays an important role in cancer and the increased IGF-1 level enhances the risk of various cancers in many researches.
Accordingly, the PI3K activity was increased by incubating Hep3B cells with IGF-1 and then measured when the cells were incubated with peptides having mutated FOG2 zinc finger domain.
After Hep3B cells incubation, 100 ng/ml IGF-1 (Insulin like growth factor-1) was added to the cells and incubated for 30 min.
Hep3B cells were transfected with pCK-flag (control), FOG2-wt (wild type) and FOG2 mutants having modified zinc finger domain (FOG2-ZF-5-m and FOG2-ZF-6-m). Two days later, the lysates were obtained using a lysis buffer (20 mM Hepes (pH7.4), 100 mM NaCl, 20 mM KAc, 10 mM MgCl2, 10 mM ZnCl2, 1 mM Na3VO4, 1% NPO4). The cell lysates were immunoprecipitated with p85α (sc-1637, Santa Cruz) and Protein G-Sepharose beads using the same method above. After binding to beads, the lysates were washed 2 times with the lysis buffer and one time with the wash buffer (0.1 M Tris-HCl (pH 7.4), 5 mM LiCl, and 0.1 mM Na3VO4).
For measurement of PI3K activity, 10 μl of sonicated PIP2 (1 μg/μl, Calbiochem), 10 μl of 100 mM MgCl2 and 1 μl of [-^32P]ATP (500 μCi/ml) were added to the kinase buffer (10 mM Tris-HCl (pH 7.4), 150 mM NaCl, 1 mM Na3VO4, 10 mM ZnCl2) and incubated at 37° C. for 30 min. After incubation, 20 μl of 6 N HCl was added to stop the reaction and PIP2 was extracted by treatment with 200 μl of methanol:chloroform (1:1) solution. The amount of radioactively labeled PIP2 in the extract was measured using a scintillator counter.

Akt = Akt phosphorylation by Western blot in transfected Hep3B cells after IGF-1 stimulation; assay type: cell-based; conditions: FIG. 1D
Experimental: Hep3B cells were transfected with FOG2 mutants having modified zinc finger domain to measure the effect on the Akt signaling by FOG2-ZF-5m. The Akt activity was measured by analyzed Akt phosphorylation.
Hep3B cells were transfected with pCK-flag (control), FOG2-wt (wild type) and FOG2 mutants having modified zinc finger domain (FOG2-ZF-5-m and FOG2-ZF-6-m) and stimulated with IGF-1. The expression of Akt (Cell signaling Technology, USA), pAkt (Cell signaling Technology, USA) and GAPDH(Santa cruz, USA) were measured by Western blot analysis.

Sequence of PI3K (P27986 whole entry, the tested form may be a part): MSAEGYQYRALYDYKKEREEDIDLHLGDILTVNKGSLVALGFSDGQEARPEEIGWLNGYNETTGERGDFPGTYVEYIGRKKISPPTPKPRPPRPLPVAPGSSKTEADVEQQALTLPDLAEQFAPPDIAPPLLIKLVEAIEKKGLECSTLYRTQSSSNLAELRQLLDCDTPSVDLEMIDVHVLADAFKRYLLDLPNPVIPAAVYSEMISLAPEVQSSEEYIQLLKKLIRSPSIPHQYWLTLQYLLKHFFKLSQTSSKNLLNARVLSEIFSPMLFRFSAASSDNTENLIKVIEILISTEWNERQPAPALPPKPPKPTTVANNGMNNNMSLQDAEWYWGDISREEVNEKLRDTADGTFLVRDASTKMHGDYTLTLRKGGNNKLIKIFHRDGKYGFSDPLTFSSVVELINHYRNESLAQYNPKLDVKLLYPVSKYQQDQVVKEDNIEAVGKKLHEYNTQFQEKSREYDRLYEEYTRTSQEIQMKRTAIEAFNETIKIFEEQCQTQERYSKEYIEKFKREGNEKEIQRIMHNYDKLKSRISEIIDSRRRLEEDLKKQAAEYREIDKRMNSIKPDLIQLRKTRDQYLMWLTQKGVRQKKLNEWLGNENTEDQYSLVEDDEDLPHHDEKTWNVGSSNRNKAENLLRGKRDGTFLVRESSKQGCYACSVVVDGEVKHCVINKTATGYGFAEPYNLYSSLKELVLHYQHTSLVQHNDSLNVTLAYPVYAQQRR
T1 sequence (P27986 whole entry, the tested form may be a part): as above

B1: FOG2-ZF-5-m: Mutated FOG2 with altered the fifth zinc finger domain (two histidine residues substituted with alanine) (protein)
chain: MSRRKQSKPRQIKRPLEDAIEDEEEECPSEETDIISKGDFPLEESFSTEFGPENLSCEEVEYFCNKGDDEGIQETAESDGDTQSEKPGQPGVETDDWDGPGELEVFQKDGERKIQSRQQLPVGTTWGPFPGKMDLNNNSLKTKAQVPMVLTAGPKWLLDVTWQGVEDNKNNCIVYSKGGQLWCTTTKAISEGEELIAFVVDFDSRLQAASQMTLTEGMYPARLLDSIQLLPQQAAMASILPTAIVNKDIFPCKSCGIWYRSERNLQAHLMYYCSGRQREAAPVSEENEDSAHQISSLCPFPQCTKSFSNARALEMHLNSHSGVKMEEFLPPGASLKCTVCSYTADSVINFHQHLFSHLTQAAFRCNHCHFGFQTQRELLQHQELHVPSGKLPRESDMEHSPSATEDSLQPATDLLTRSELPQSQKAMQTKDASSDTELDKCEKKTQLFLTNQRPEIQPTTNKQSFSYTKIKSEPSSPRLASSPVQPNIGPSFPVGPFLSQFSFPQDITMVPQASEILAKMSELVHRRLRHGSSSYPPVIYSPLMPKGATCFECNITFNNLDNYLVAKKAYCSSRWQQMAKSPEFPSVSEKMPEALSPNTGQTSINLLNPAAHSADPENPLLQTSCINSSTVLDLIGPNGKGHDKDFSTQTKKLSTSSNNDDKINGKPVDVKNPSVPLVDGESDPNKTTCEACNITFSRHETYMVHKQYYCATRHDPPLKRSASNKVPAMQRTMRTRKRRKMYEMCLPEQEQRPPLVQQRFLDVANLNNPCTSTQEPTEGLGECYHPRCDIFPGIVSKHLETSLTINKCVPVSKCDTTHSSVSCLEMDVPIDLSKKCLSQSERTTTSPKRLLDYHECTVCKISFNKVENYLAHKQNFCPVTAHQRNDLGQLDGKVFPNPESERNSPDVSYERSIIKCEKNGNLKQPSPNGNLFSSHLATLQGLKVFSEAAQLIATKEENRHLFLPQCLYPGAIKKAKGADQLSPYYGIKPSDYISGSLVIHNTDIEQSRNAENESPKGQASSNGCAALKKDSLPLLPKNRGMVIVNGGLKQDERPAANPQQENISQNPQHEDDHKSPSWISENPLAANENVSPGIPSAEEQLSSIAKGVNGSSQAPTSGKYCRLCDIQFNNLSNFITHKKFYCSSHAAEHVK
modifications: left off: small tags and cut ends
- interaction with p85α (p85α): did not
- reduction of cell migration (MDA MB 231 cells [1]): does not; also recorded: not observed
- effect on cell proliferation (MDA MB 231 cells [2]): did not influence the cell proliferation
- PI3K activation by IGF-1 stimulation (PI3K; 100 ng/ml IGF-1 30 min, FIG. 1C): did not inhibit PI3K activation
- PI3K activity (PI3K; without IGF-1 stimulation, FIG. 5A): did not inhibit PI3K activity
- Akt phosphorylation (Akt): increased
